Here are results for two substances from paper PMC9811728.

Broadly, the stoichiometry N is the number of molecules, sites or subunits per partner or assembly.

The target of experiment [1] is SC-CAT (SpyCatcher fused to the N-terminus of catalase) (Bacillus subtilis strain 168). The experiment can be described thus: SEC; elution profiles compared with molecular weight standards. Background: In gel filtration, larger molecules generally elute earlier.
Experiment [2] deals with SC-LOX (SpyCatcher fused to the N-terminus of lactate oxidase) (Aerococcus viridans). The description is as above.

“SC-CAT (SpyCatcher fused to the N-terminus of catalase) (enzyme)” showed a stoichiometry N in experiment [1] of 4. Consider “SC-LOX (SpyCatcher fused to the N-terminus of lactate oxidase) (enzyme)”, for which, in experiment [2], the stoichiometry N worked out at 4.
